Patent US20230220589A1

Tests used:
[1] = molecular target: M44-modified H NTAA target peptides; assay: encoding assay; P2 G;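 note: fraction of recording tags encoded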
[2] = molecular target: M44-modified N NTAA target peptides; assay: encoding assay; P2 G
[3] = molecular target: M44-modified S NTAA target peptides; assay: encoding assay; P2 G
[4] = molecular target: M44-modified A NTAA target peptides (M44-A-P2-peptide); assay: encoding assay; P2 G;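 note: fraction of recording tags encoded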
[5] = molecular target: M44-modified D NTAA target peptides; assay: encoding assay; P2 G;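 note: fraction of recording tags encoded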
[6] = molecular target: M44-modified G NTAA target peptides (M44-G-P2-peptide); assay: encoding assay; P2 P;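 note: fraction of recording tags encoded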
[7] = molecular target: M44-modified V NTAA target peptides; assay: encoding assay; P2 P;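 note: fraction of recording tags encoded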
[8] = molecular target: M44-modified T NTAA target peptides; assay: encoding assay; P2 P;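 note: fraction of recording tags encoded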
[9] = molecular target: M44-modified P NTAA target peptides; assay: encoding assay; P2 P;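 note: fraction of recording tags encoded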
[10] = molecular target: M44-modified W NTAA target peptides; assay: encoding assay; P2 P;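 note: fraction of recording tags encoded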
[11] = molecular target: M44-modified G NTAA target peptides (M44-G-P2-peptide); assay: encoding assay; P2 H;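 note: fraction of recording tags encoded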
[12] = molecular target: M44-modified E NTAA target peptides; assay: encoding assay; P2 H;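 note: fraction of recording tags encoded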
[13] = molecular target: M44-modified S NTAA target peptides; assay: encoding assay; P2 H
[14] = molecular target: M17-modified I NTAA target peptides; assay: encoding assay; P2 G;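 note: fraction of recording tags encoded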
[15] = molecular target: M17-modified F NTAA target peptides; assay: encoding assay; P2 G;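 note: fraction of recording tags encoded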
[16] = molecular target: M17-modified H NTAA target peptides; assay: encoding assay; P2 G;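 note: fraction of recording tags encoded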
[17] = molecular target: M17-modified A NTAA target peptides; assay: encoding assay; P2 G;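 note: fraction of recording tags encoded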
[18] = molecular target: M17-modified Q NTAA target peptides; assay: encoding assay; P2 G;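 note: fraction of recording tags encoded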
[19] = molecular target: M17-modified N NTAA target peptides; assay: encoding assay; P2 G;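 note: fraction of recording tags encoded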
[20] = molecular target: M17-modified T NTAA target peptides; assay: encoding assay; P2 G;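 note: fraction of recording tags encoded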
[21] = molecular target: M17-modified E NTAA target peptides; assay: encoding assay; P2 G;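 note: fraction of recording tags encoded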
[22] = molecular target: M17-modified Y NTAA target peptides (M17-Y-P2-peptide); assay: encoding assay; P2 G;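 note: fraction of recording tags encoded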
[23] = molecular target: M17-modified I NTAA target peptides; assay: encoding assay; P2 P;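 note: fraction of recording tags encoded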
[24] = molecular target: M17-modified F NTAA target peptides; assay: encoding assay; P2 P;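 note: fraction of recording tags encoded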
[25] = molecular target: M17-modified D NTAA target peptides; assay: encoding assay; P2 P;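 note: fraction of recording tags encoded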
[26] = molecular target: M17-modified H NTAA target peptides; assay: encoding assay; P2 P;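 note: fraction of recording tags encoded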
[27] = molecular target: M17-modified A NTAA target peptides; assay: encoding assay; P2 P;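 note: fraction of recording tags encoded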
[28] = molecular target: M17-modified Q NTAA target peptides; assay: encoding assay; P2 P;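 note: fraction of recording tags encoded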
[29] = molecular target: M17-modified N NTAA target peptides; assay: encoding assay; P2 P;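 note: fraction of recording tags encoded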
[30] = molecular target: M17-modified M NTAA target peptides; assay: encoding assay; P2 P;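 note: fraction of recording tags encoded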
[31] = molecular target: M17-modified P NTAA target peptides; assay: encoding assay; P2 P;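 note: fraction of recording tags encoded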
[32] = molecular target: M17-modified S NTAA target peptides; assay: encoding assay; P2 P;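 note: fraction of recording tags encoded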
[33] = molecular target: M17-modified T NTAA target peptides; assay: encoding assay; P2 P;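 note: fraction of recording tags encoded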
[34] = molecular target: M17-modified E NTAA target peptides; assay: encoding assay; P2 P;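 note: fraction of recording tags encoded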
[35] = molecular target: M17-modified V NTAA target peptides; assay: encoding assay; P2 P;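 note: fraction of recording tags encoded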
[36] = molecular target: M17-modified W NTAA target peptides; assay: encoding assay; P2 P;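 note: fraction of recording tags encoded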
[37] = molecular target: M17-modified Y NTAA target peptides (M17-Y-P2-peptide); assay: encoding assay; P2 P;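 note: fraction of recording tags encoded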
[38] = molecular target: M17-modified L NTAA target peptides; assay: encoding assay; P2 P;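 note: fraction of recording tags encoded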
[39] = molecular target: M17-modified G NTAA target peptides; assay: encoding assay; P2 P;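 note: fraction of recording tags encoded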
[40] = molecular target: M17-modified I NTAA target peptides; assay: encoding assay; P2 H;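 note: fraction of recording tags encoded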
[41] = molecular target: M17-modified F NTAA target peptides; assay: encoding assay; P2 H;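 note: fraction of recording tags encoded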
[42] = molecular target: M17-modified D NTAA target peptides; assay: encoding assay; P2 H;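 note: fraction of recording tags encoded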
[43] = molecular target: M17-modified H NTAA target peptides; assay: encoding assay; P2 H;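 note: fraction of recording tags encoded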
[44] = molecular target: M17-modified N NTAA target peptides; assay: encoding assay; P2 H;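 note: fraction of recording tags encoded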
[45] = molecular target: M17-modified M NTAA target peptides; assay: encoding assay; P2 H;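 note: fraction of recording tags encoded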
[46] = molecular target: M17-modified P NTAA target peptides; assay: encoding assay; P2 H;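 note: fraction of recording tags encoded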
[47] = molecular target: M17-modified S NTAA target peptides; assay: encoding assay; P2 H;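 note: fraction of recording tags encoded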
[48] = molecular target: M17-modified T NTAA target peptides; assay: encoding assay; P2 H;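 note: fraction of recording tags encoded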
[49] = molecular target: M17-modified E NTAA target peptides; assay: encoding assay; P2 H;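 note: fraction of recording tags encoded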
[50] = molecular target: M17-modified V NTAA target peptides; assay: encoding assay; P2 H;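 note: fraction of recording tags encoded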
[51] = molecular target: M17-modified W NTAA target peptides; assay: encoding assay; P2 H;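 note: fraction of recording tags encoded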
[52] = molecular target: M17-modified Y NTAA target peptides (M17-Y-P2-peptide); assay: encoding assay; P2 H;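 note: fraction of recording tags encoded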
[53] = molecular target: M17-modified L NTAA target peptides; assay: encoding assay; P2 H;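 note: fraction of recording tags encoded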
[54] = molecular target: M17-modified G NTAA target peptides; assay: encoding assay; P2 H;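 note: fraction of recording tags encoded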

B1: engineered M44-A binder (SEQ ID NO: 42) (designed binder, not shown: small tags and cut ends; large carriers)
chain: QVSVQPNFQQDKFLGRWFVAGLASNSSWDREKVAALSGAKMVVAPATDGGLNVTRTMLRKNQCETYTGLLQPAGSLGSYSWRSPHPGSTGSESVVETDYDQYALVYGQGSKGPGEDLRAAALWSRTQTPRAELKEKFTAFSKAQGFTEDTIVFLPQTDKCMTEQ
encoding yield [1]: 0.02 | encoding yield [2]: 0.01 | encoding yield [3]: 0.01 | encoding yield [4]: 0.07 | encoding yield [5]: 0.01 | encoding yield [6]: 0.01 | encoding yield [7]: 0.01 | encoding yield [8]: 0.01 | encoding yield [9]: 0.01 | encoding yield [10]: 0.01 | encoding yield [11]: 0.01 | encoding yield [12]: 0.03 | encoding yield [13]: 0.01

B2: engineered M17-Y binder (SEQ ID NO: 61) (designed binder, not shown: small tags and cut ends; large carriers)
chain: TVPDRSEIAGKWYVVALASNTEFYLREKDWVKSAMARISFLGEDELKVSSAVPSPNGCYKVERTWKKTSDDGEVYNSRAAKLKVEVLDTDYKSYAVIYATRVKDGRTDHQMILYSRSPEVSPAATAIFRKLAGERNYTDEMVAMLPRQEECTVDEV
encoding yield [14]: 0.03 | encoding yield [15]: 0.06 | encoding yield [16]: 0.03 | encoding yield [17]: 0.01 | encoding yield [18]: 0.02 | encoding yield [19]: 0.01 | encoding yield [20]: 0.03 | encoding yield [21]: 0.02 | encoding yield [22]: 0.11 | encoding yield [23]: 0.06 | encoding yield [24]: 0.12 | encoding yield [25]: 0.02 | encoding yield [26]: 0.03 | encoding yield [27]: 0.02 | encoding yield [28]: 0.02 | encoding yield [29]: 0.01 | encoding yield [30]: 0.03 | encoding yield [31]: 0.01 | encoding yield [32]: 0.02 | encoding yield [33]: 0.01 | encoding yield [34]: 0.02 | encoding yield [35]: 0.02 | encoding yield [36]: 0.02 | encoding yield [37]: 0.16 | encoding yield [38]: 0.05 | encoding yield [39]: 0.01 | encoding yield [40]: 0.03 | encoding yield [41]: 0.02 | encoding yield [42]: 0.02 | encoding yield [43]: 0.03 | encoding yield [44]: 0.03 | encoding yield [45]: 0.02 | encoding yield [46]: 0.03 | encoding yield [47]: 0.01 | encoding yield [48]: 0.02 | encoding yield [49]: 0.01 | encoding yield [50]: 0.03 | encoding yield [51]: 0.02 | encoding yield [52]: 0.07 | encoding yield [53]: 0.02 | encoding yield [54]: 0.01

B3: upgraded binder after additional maturation round (SEQ ID NO: 62) (designed binder, not shown: small tags and cut ends; large carriers)
chain: TVPDRSEIAGKWYVVALASNTEFYLRGKDRVKSAMVRISFQGEDELKVSSAVPSPNGCYKVERTWKKTSDDGEVYNSRAAKLKVEVLDTDYKSYAVIYATRVKDRRTDHQMILYSRSPDVSPAATAIFRKLAGERNYTDEMVAMLPRQEECTVDEV
encoding yield [14]: 0.05 | encoding yield [15]: 0.11 | encoding yield [16]: 0.03 | encoding yield [17]: 0.02 | encoding yield [18]: 0.02 | encoding yield [19]: 0.01 | encoding yield [20]: 0.05 | encoding yield [21]: 0.02 | encoding yield [22]: 0.18 | encoding yield [23]: 0.07 | encoding yield [24]: 0.12 | encoding yield [25]: 0.03 | encoding yield [26]: 0.04 | encoding yield [27]: 0.02 | encoding yield [28]: 0.02 | encoding yield [29]: 0.02 | encoding yield [30]: 0.03 | encoding yield [31]: 0.01 | encoding yield [32]: 0.04 | encoding yield [33]: 0.02 | encoding yield [34]: 0.02 | encoding yield [35]: 0.03 | encoding yield [36]: 0.11 | encoding yield [37]: 0.28 | encoding yield [38]: 0.08 | encoding yield [39]: 0.02 | encoding yield [40]: 0.03 | encoding yield [41]: 0.02 | encoding yield [42]: 0.03 | encoding yield [43]: 0.02 | encoding yield [44]: 0.03 | encoding yield [45]: 0.03 | encoding yield [46]: 0.04 | encoding yield [47]: 0.02 | encoding yield [48]: 0.03 | encoding yield [49]: 0.02 | encoding yield [50]: 0.02 | encoding yield [51]: 0.03 | encoding yield [52]: 0.07 | encoding yield [53]: 0.02 | encoding yield [54]: 0.02

B4: engineered M44-L binder (SEQ ID NO: 31) (designed binder, not shown: small tags and cut ends; large carriers)
chain: QDSTQNLIPAPPLISVPLQPGFWTERFQGRWFLVGFAGNAVQKERQSRLTMQSLILELQEDNSYNITAINVRGQGCRYIISTLVPSSRPGQFTLGNIHSYPQIQSLDVQVADTDYDQFAMVFLQGTSENKQYFEVALAGRTKGLSDELKERFVSFAKSLGLKDNNIVFSVPTDQCIDN
encoding yield [1]: 0.02 | encoding yield [2]: 0.01 | encoding yield [3]: 0.01 | encoding yield [4]: 0.01 | encoding yield [5]: 0.01 | encoding yield [6]: 0.01 | encoding yield [7]: 0.02 | encoding yield [8]: 0.01 | encoding yield [9]: 0.01 | encoding yield [10]: 0.04 | encoding yield [11]: 0.01 | encoding yield [12]: 0.02 | encoding yield [13]: 0.01
